Test results as given in the nanobody polyreactivity screen of Harvey et al. (2022).

Test: yeast display, Sf9 membrane polyspecificity reagent, FACS + sequencing; frameworks hold sequencing errors
In short: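 Nanobodies from a synthetic yeast display library (Saccharomyces cerevisiae BJ5465), induced 36–48 hours with galactose, were stained 1 hour at 4 °C with 10% biotinylated, detergent-solubilized Sf9 membrane reagent, enriched on streptavidin microbeads, then FACS-sorted. Anti-HA (expression) and streptavidin (reagent binding) fluorescence set low and high (top ~1%) gates. Polyreactivity labels come from the gate of origin. Genes were colony-PCR amplified, MiSeq 2 × 250 sequenced and filtered by CDR length.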

Sequence | polyreactivity (PSR sort gate)
QVQLVESGGGLVQAGGSLRLSCAASGFIFYSYAMGWYRQAPGKERELVAAISWSGGRTYYADSVKGRFTISRDNAKNTVYLQMNSLKPEDTAVYYCNADDYSFSFTVPYYIEYDYWGQGTQVTVSS | high polyreactivity
QVQLVESGGGLVQAGGSLRLSCAASGRTIRVYAMGWYRQAPGKERELVARINFRGGSTRYADSVKGRFTISRDNAKNTVYLQMNSLKPEDTAVYYCAARPSSFYYSNGFDYWGQGTQVTVSS | high polyreactivity
QVQLVESGGGLVQAGGSLRLSCAASGLTFVPNAMGWYRQAPGKERELVAAISNNGGRTYYADSVKGRFTISRDNAKNNVYLQMNSLKPEDTAVYYCAKYLSPGERHSYDYWGQGTQVTLSS | high polyreactivity
QDQLVESGGGLVQAGGSLRLSFAASGFTFDHYAMGWSRQAPGKEREYVARITGTGDSTYYADSVKGRFTISRDNAKNTVYLQMNSLKPEDTAVYYCAKDFTGHYPNGFDYWGQGTQVTVSS | low polyreactivity
QVQLVESGGGLVQAGGSLRLSCAASGSTFFDYAMGWYRQAPGKVRELVAVISDGGTTTYADSVKGRFTISRDNAKNTVYLQMNSLKPEDTAVYYCAAENQDGLLVILGGYGYWGQGTQVTVSS | low polyreactivity
QVQLVESGGGLVQAGGSLRLSCAASGSIFQYNAMGWYRQAPGKERELVAAINGGGSTYYADSVKGRFTISRDNAKNTVYLQMNSLKPEDTAVYYCAADGGAYSYRGPGKFGIEDSWGQGTQVTVSS | low polyreactivity
QVQLVESGGGLVQAGGSLRLSCAASGRIFKYYVMGWYRQAPGKEREFVAAISGRGGRTYYADSVKGRFTISRDNAKNTVYLQMNSLKPEDTAVYYCATERQERGPLGYNYWGLGTQVTVSS | high polyreactivity
QVQLVESGGGLVQAGGSLRLSCAASGSNFSDYAMGWYRQAPGKEREFVATITWSGTSTYYADSVKGRFTISRDNAKNTVYLQMNSLKAEDTAVYYCAAELLFWLGLVPGTIFDEFDYWGQGTQVTVSS | low polyreactivity
QDQLVESGGGLVQAGGSLRLSCAASGRTLWRNTMGWYRQAPGKERELVAAITTRGGSTYYADSVKGRFTISRDNAKNTVYLQLNSLKPEDTAVYYCAARTYTGEGSGRFYYWGQGTQVTVSS | high polyreactivity
QVQLVESGGGLVQAGGSLRLSCADSGGTFYRYARGWYRQAPGKERELVAAISRRGGSTYYADSVKGRFTISRDNAKNTVYLQMNSLKPDDTAVYYCDKDVSDSRFDYWGQGTQVTVSS | high polyreactivity
QVQLVESGGGLVQAGGSLRLSCAASGGIFSPNAMGWYRQAHGKERELVASISSNGGSTNYADSVKGRFTISRDNAKNTVYLQMNSLKPEDTAVYYCAGLQKRRSYWRPFYWGQGTQVTVSS | low polyreactivity
QVQLVESGGALVQAGGSLRLTCAASGSTFWDNSMGWYRQAPGKEREFVADITAIGGTTYYADSVKGRFTISRDNAQNTVYLQMNSLKPEDTAVYYCAADWTTYGFSYFSIYYYWGQGTQVTVSS | low polyreactivity
QVQLVESGGGLVQAGGSLRLSCAASGFIFVPYAMGWYRQAPGKERELVASITYTGGSTYYADSVKGRFTISRDNAKNTVYLQMNSLKPEDTAVYYCASRYQYWRLHMDYWGQGTPVTVSS | low polyreactivity
QVQLVESGGGLVQAGGILRLSCSASGRIFQFYAMGWYRQAPGKERELVAGISWSGGSTNYADSVKGRFTISRDNAKNTVYLQMNSLKPEDSAVYYCNVDLYNWRGDSTGYDYWGQGTQVTVSS | low polyreactivity
QVQLVESGGGLVHAAGSLRLSCAASGRTFRYNTMGWYRQASGKESELVARITRSGGSTYYADSVKGRFTISRDNAKNTVYLQMNSLKPEDTAVYYCAAVPILVYRWFQYYTGDYDYWGQGTQVTVSS | low polyreactivity
QVQLVESGGGLVQAGGSLRLSCAASGRIFRSYVMGWYRQAPGKERELVAVISKNGGTTYYADSVKGRFTISRDNAKNTVYFQRNSLKPEDTAVYYCAARRLGYYRKVKELDYWGQGTQVTVSS | high polyreactivity
QVQLHESGVGLVQAGGGLRLSCAATGSISSTGFMGWYRQAPGKEREPVAAIAPGTTTYYADSVKGRFTISRDNAKNTVYLQMNSLRPEDTAVYYCAVFTDNRVAFLYWGQGTQVTVSS | low polyreactivity
